Experimental data as given in the supplement of paper PMC9732359.
± gives the uncertainty stated by the source.

Test: protein stability index of a GFP-peptide fusion (yeast GPS) (PSI 1-4); higher = more stable; sorted into four equal gates, so the index is relative within each strain
Method in brief: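 Yeast carrying a pooled library were grown to mid-log phase in leucine-free medium. Each library plasmid expresses Cherry and has a tiled 17-residue yeast protein peptide fused downstream of GFP. Cells were sorted into four equal gates by GFP/Cherry ratio, and plasmids from each gate were PCR-amplified, Illumina-sequenced and assigned to strains by barcode. Summing, across gates, the read frequency times the gate number gave each peptide's protein stability index.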

Sequence | protein stability index (doa10∆) | protein stability index (pdr5∆) | protein stability index (san1∆) | protein stability index (ubr1∆)
ASISLPNHIPSVNPSNK [SWP82] | 2.99 ± 0.1 | 3.05 ± 0.069 | 3.01 ± 0.075 | 3.12 ± 0.054
IIASASYDKTVKLWEED [YGL100W/SEH1] | 3.3 ± 0.18 | 3.67 ± 0.25 | 3.22 ± 0.093 | 3.41 ± 0.12
PKYIDELKTRDATNTSY [SWP82] | 2.68 ± 0.095 | 3.12 ± 0.072 | 2.58 ± 0.079 | 2.94 ± 0.05
QQNYSKVLLPSINISCV [SWI1] | 1.85 ± 0.067 | 1.71 ± 0.059 | 1.87 ± 0.16 | 2.53 ± 0.054
KSKLDQDSTSENVKIIN [RPN2] | 3.39 ± 0.07 | 3.3 ± 0.065 | 2.97 ± 0.074 | 3.18 ± 0.08
NSINKTTVPFKESDDPS [POP1] | 2.5 ± 0.067 | 2.93 ± 0.06 | 2.71 ± 0.072 | 2.36 ± 0.065
DEANIEIDPLTGMPISN [BRN1] |  | 2.65 ± 0.25 |  | 2.42 ± 0.27
KSMITSEGEQKSAEGNN [YAR002W/NUP60] | 3.2 ± 0.047 | 3.19 ± 0.045 | 3.25 ± 0.035 | 3.17 ± 0.041
AEEKREAVIDEKLEVIA [ITC1] | 3.04 ± 0.15 | 2.62 ± 0.16 | 3.03 ± 0.14 | 3.13 ± 0.082
QTAVTCESCSTVLCTPT [RPS27B] | 1.89 ± 0.055 | 2.29 ± 0.058 | 2.06 ± 0.071 | 2.09 ± 0.066
HASENISLSFSRPASYG [SIR4] | 2.53 ± 0.064 | 2.53 ± 0.044 | 2.74 ± 0.049 | 3.19 ± 0.045
QIVSYCSNNKNSIKNVP [SSN2] | 1.65 ± 0.083 | 2.14 ± 0.096 | 1.4 ± 0.096 | 1.79 ± 0.083
KREESESAAVYNGRGAR [SNF2] | 3.09 ± 0.17 | 3.02 ± 0.091 | 3.35 ± 0.057 | 3.49 ± 0.085
IYAGYDDRYGYQLYTSN [PRE9] | 2.99 ± 0.16 | 2.14 ± 0.25 | 1.86 ± 0.17 | 2.34 ± 0.16
QGRDTSKLPDPERWLPL [SRP72] | 3.33 ± 0.16 | 2.86 ± 0.21 | 3.31 ± 0.13 | 2.93 ± 0.17
KRVTKVKRLLFTIRGFK [MTW1] | 2.34 ± 0.057 | 2.52 ± 0.043 | 2.14 ± 0.057 | 2.54 ± 0.042
VVKGRVEKTLLSDVAFY [RPO31] | 2.16 ± 0.22 | 3.14 ± 0.23 |  | 2.52 ± 0.15
MANKEWRVREASTSALL [ECM29] |  |  |  | 2.26 ± 0.2
LHEKYLTEGGSILEEKI [SMC1] | 3.02 ± 0.077 | 3.24 ± 0.1 | 3.01 ± 0.061 | 3.19 ± 0.094
KVLLPSINISCVQLIKC [SWI1] | 1.27 ± 0.064 | 1.47 ± 0.051 | 1.17 ± 0.18 | 1.49 ± 0.051
DEEGIFSRFVDQFIRHV [YCG1] | 2.98 ± 0.16 | 2.79 ± 0.13 | 2.99 ± 0.085 | 2.93 ± 0.06
SDIISMLQISDDNEMTR [RRI2] | 3.05 ± 0.096 | 3.24 ± 0.1 | 3.2 ± 0.045 | 2.87 ± 0.1
SCTFWSDKESNAYGFIE [YJL039C/NUP192] | 2.9 ± 0.079 | 2.65 ± 0.083 | 2.83 ± 0.07 | 3.26 ± 0.09
SSKLYQMQQQQQAQAQA [GAL11] | 1.89 ± 0.071 | 2.09 ± 0.051 | 1.9 ± 0.082 | 1.82 ± 0.057
LSTTPTKSNRRVSHSDT [SIR4] |  | 3.06 ± 0.26 | 3.33 ± 0.088 | 3.25 ± 0.2
LAAPKKLNDSQRKTVNS [POP1] | 3.18 ± 0.075 | 2.98 ± 0.12 | 3.02 ± 0.065 | 3.34 ± 0.075
TFIDKERHQKQLNEKLV [YCS4] | 2.62 ± 0.13 | 2.6 ± 0.16 | 2.81 ± 0.078 | 2.65 ± 0.093
